This note sets out measurements from US20140271675A1 (Eli Lilly, published 2014).

The target in experiment [1] is hVEGFR1-Fc (R&D 321-fl 050/cf) (human) (UniProt P17948). Briefly: competition ELISA, coated hVEGFR1-Fc, competitor biotin-hVEGFA-165 2 nM; control Ron antibody 0.1852 µg/ml. For orientation: ELISA stands for enzyme-linked immunosorbent assay.
Experiment [2] has the same target. Briefly: competition ELISA, coated hVEGFR1-Fc, competitor biotin-hPLGF1 2 nM; control Ron antibody 0.617 µg/ml.
Experiment [3] shares this target. Nature of the experiment: competition ELISA, coated hVEGFR1-Fc, competitor biotin-hVEGFA-165 2 nM; control Ron antibody 16.667 µg/ml.
Experiment [4] shares this target. Briefly: competition ELISA, coated hVEGFR1-Fc, competitor biotin-hPLGF1 4 nM; control Ron antibody 5.0000 µg/ml.
Experiment [5] shares this target. Nature of the experiment: competition ELISA, coated hVEGFR1-Fc, competitor biotin-hVEGFA-165 2 nM; control Ron antibody 5.556 µg/ml.
For experiment [6] the target is unchanged. Nature of the experiment: competition ELISA, coated hVEGFR1-Fc, competitor biotin-hVEGFA-165 2 nM; control Ron antibody 0.617 µg/ml.
The target is the same in experiment [7]. Briefly: competition ELISA, coated hVEGFR1-Fc, competitor biotin-hPLGF1 2 nM; control Ron antibody 0.023 µg/ml.
Experiment [8] shares this target. Nature of the experiment: competition ELISA, coated hVEGFR1-Fc, competitor biotin-hVEGFA-165 2 nM; control Ron antibody 5.0000 µg/ml.
For experiment [9] the target is unchanged. Briefly: competition ELISA, coated hVEGFR1-Fc, competitor biotin-hPLGF1 2 nM; control Ron antibody 50.000 µg/ml.
Experiment [10] shares this target. Nature of the experiment: competition ELISA, coated hVEGFR1-Fc, competitor biotin-hVEGFA-165 2 nM; control Ron antibody 0.023 µg/ml.
Experiment [11] has the same target. Nature of the experiment: competition ELISA, coated hVEGFR1-Fc, competitor biotin-hVEGFA-165 2 nM; control Ron antibody 0.0617 µg/ml.
For experiment [12] the target is unchanged. Nature of the experiment: competition ELISA, coated hVEGFR1-Fc, competitor biotin-hPLGF1 4 nM; control Ron antibody 1.6667 µg/ml.
For experiment [13] the target is unchanged. Briefly: competition ELISA, coated hVEGFR1-Fc, competitor biotin-hPLGF1 4 nM; control Ron antibody 0.0069 µg/ml.
The target is the same in experiment [14]. Nature of the experiment: competition ELISA, coated hVEGFR1-Fc, competitor biotin-hVEGFA-165 2 nM; control Ron antibody 1.852 µg/ml.
For experiment [15] the target is unchanged. Briefly: competition ELISA, coated hVEGFR1-Fc, competitor biotin-hVEGFA-165 2 nM; control Ron antibody 0.0023 µg/ml.
Experiment [16] has the same target. Briefly: competition ELISA, coated hVEGFR1-Fc, competitor biotin-hVEGFA-165 2 nM; control Ron antibody 0.069 µg/ml.
The target is the same in experiment [17]. Briefly: competition ELISA, coated hVEGFR1-Fc, competitor biotin-hPLGF1 2 nM; control Ron antibody 16.667 µg/ml.
For experiment [18] the target is unchanged. Briefly: competition ELISA, coated hVEGFR1-Fc, competitor biotin-hVEGFA-165 2 nM; control Ron antibody 0.206 µg/ml.
For experiment [19] the target is unchanged. Nature of the experiment: competition ELISA, coated hVEGFR1-Fc, competitor biotin-hPLGF1 4 nM; control Ron antibody 0.0617 µg/ml.
Experiment [20] has the same target. Briefly: competition ELISA, coated hVEGFR1-Fc, competitor biotin-hPLGF1 4 nM; control Ron antibody 0.0023 µg/ml.
Experiment [21] shares this target. Briefly: competition ELISA, coated hVEGFR1-Fc, competitor biotin-hPLGF1 2 nM; control Ron antibody 0.069 µg/ml.
For experiment [22] the target is unchanged. Nature of the experiment: competition ELISA, coated hVEGFR1-Fc, competitor biotin-hVEGFA-165 2 nM; control Ron antibody 1.6667 µg/ml.
Experiment [23] shares this target. Briefly: competition ELISA, coated hVEGFR1-Fc, competitor biotin-hPLGF1 4 nM; control Ron antibody 0.1852 µg/ml.
Experiment [24] shares this target. Briefly: competition ELISA, coated hVEGFR1-Fc, competitor biotin-hPLGF1 2 nM; control Ron antibody 5.556 µg/ml.

hVEGFR1-Fc (R&D 321-fl 050/cf) (human), sequence (P17948 27-758): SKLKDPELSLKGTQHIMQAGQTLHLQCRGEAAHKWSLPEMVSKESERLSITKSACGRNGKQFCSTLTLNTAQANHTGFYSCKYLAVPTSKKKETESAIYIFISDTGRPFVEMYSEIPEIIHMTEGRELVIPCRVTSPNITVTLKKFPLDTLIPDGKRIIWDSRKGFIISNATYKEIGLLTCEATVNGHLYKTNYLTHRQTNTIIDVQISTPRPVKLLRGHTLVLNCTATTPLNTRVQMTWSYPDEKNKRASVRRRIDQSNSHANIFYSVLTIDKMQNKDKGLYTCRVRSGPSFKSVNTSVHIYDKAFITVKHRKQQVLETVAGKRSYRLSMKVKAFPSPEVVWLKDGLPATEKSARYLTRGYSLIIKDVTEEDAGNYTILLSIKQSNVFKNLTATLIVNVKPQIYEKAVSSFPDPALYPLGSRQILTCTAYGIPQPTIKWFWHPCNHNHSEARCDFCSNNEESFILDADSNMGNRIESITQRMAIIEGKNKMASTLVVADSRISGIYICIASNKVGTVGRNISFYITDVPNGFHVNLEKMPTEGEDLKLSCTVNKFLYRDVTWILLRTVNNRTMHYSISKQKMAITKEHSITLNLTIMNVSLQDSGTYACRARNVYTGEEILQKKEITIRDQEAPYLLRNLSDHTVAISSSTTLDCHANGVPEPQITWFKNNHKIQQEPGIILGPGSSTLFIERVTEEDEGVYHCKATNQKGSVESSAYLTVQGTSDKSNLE

Regarding control Ron antibody (R&D MAB691), the OD560 (bound biotinylated VEGF-A) in experiment [1] came to 1.46 OD; in experiment [3] it was 0.566 OD; in experiment [5] it was 0.535 OD; in experiment [6], 0.535 OD; in [8], 1.51 OD; in experiment [10], 0.506 OD. For the same substance, the OD560 (bound biotinylated VEGF-A) was 1.51 OD in [11]; 0.53 OD in experiment [14]; 1.54 OD in experiment [15]; 0.519 OD in experiment [16]; 0.554 OD in experiment [18]; 1.42 OD in [22]. For the same substance, the OD560 (bound biotinylated PlGF) in experiment [2] was 0.295 OD; in [4], 0.407 OD; in experiment [7] it was 0.296 OD; in [9], 0.339 OD; in experiment [12], 0.432 OD; in experiment [13], 0.37 OD. For the same substance, the OD560 (bound biotinylated PlGF) in experiment [17] was determined as 0.304 OD; in experiment [19], 0.408 OD; in experiment [20] it was 0.359 OD; in experiment [21] it was 0.283 OD; in experiment [23], 0.405 OD; in experiment [24], 0.298 OD.
